“Also recorded” adds a separate entry of the source.
Experiments:
Type in all cases: in vivo, human
[1] = Infusion reactions caused by KM-871 in patients, premedication with Sigulair, Zertec, Benadryl, Zantac and Dexametazone (Example 4); settings: one patient
Protocol: (§1) The following test was performed by using various compounds to suppress the infusion reactions caused by KM-871.
KM-871 was administered to each patient with a dose of 40 mg/m^2 or 80 mg/m^2 every two weeks for four times as a general rule. Sigulair (10 mg) and Zertec (10 mg) were orally administered and Benadryl (50 mg), Zantac (50 mg) and Dexametazone (20 mg) were parenterally administered to the patient 30 minutes prior to each administration of KM-871 except for the first administration.
As a test dose, KM-871 (10 mg/m^2), was administered to the patient two weeks prior to the first administration of KM-871 to confirm its safeness. When toxicity or infusion reactions are observed to the patient by the administration, the administration was withdrawn.

[2] = Infusion reactions caused by KM-871 in patients, premedication with Benadryl and Zantac (Example 1); settings: per patient; for Infusion reaction, 1st administration / Infusion reaction, 2nd administration / Infusion reaction, 3rd administration: KM-871 40 mg/m^2 every two weeks, Benadryl 50 mg and Zantac 50 mg parenterally 30 min before, at the administrations named in column Pre-medication; for Infusion reaction, Test: KM-871 test dose 10 mg/m^2 two weeks prior to 1st administration
Protocol: The following test was performed to suppress the infusion reactions caused by human anti-GD3 chimeric antibody.
A human chimeric antibody which specifically binds to ganglioside GD3, wherein the human chimeric antibody comprises the H chain V region of the antibody comprising the amino acid sequence represented by SEQ ID NO:3 and the L chain V region of the antibody comprising the amino acid sequence represented by SEQ ID NO:4 was produced according to U.S. Pat. No. 6,437,098 (hereinafter referred to as ‘KM-871’).
(§2) KM-871 was administered to each patient with a dose of 40 mg/m^2 once every two weeks for four times as a general rule. Benadryl (50 mg) and Zantac (50 mg) were parenterally administered to the patient 30 minutes prior to each administration of KM-871 except for the first administration.
(§3) As a test dose, KM-871 (10 mg/m^2), was administered to the patient two weeks prior to the first administration of KM-871 to confirm its safeness.

[3] = Infusion reactions caused by KM-871 in patients, premedication with Sigulair and Zertec (Example 2); settings: per patient
Protocol: as §1
KM-871 was administered to each patient with a dose of 40 mg/m^2 once every two weeks for four times as a general rule. Sigulair (10 mg) and Zertec (10 mg) were orally administered to the patient 30 minutes prior to each administration of KM-871 except for the first administration.
as §3

[4] = Infusion reactions caused by KM-871 in one patient, premedication before second and third administration (Example 5)
Protocol: On the day of the second administration of KM-871, Benadryl (100 mg), Zantac (50 mg), Singulair (10 mg), Zyrtec (10 mg) and Dexametazone (10 mg) were administered to the patient followed by the administration of KM-871.
Prior to the third administration of KM-871, Benadryl (100 mg), Zantac (50 mg), Singulair (10 mg), and Zyrtec (10 mg), were administered to the patient.

[5] = Infusion reactions caused by KM-871 in patients, premedication with Sigulair, Zertec, Benadryl and Zantac (Example 3); settings: per patient, KM-871 40 mg/m^2 every two weeks, Sigulair 10 mg, Zertec 10 mg orally and Benadryl 50 mg, Zantac 50 mg parenterally 30 min before, at the administrations named in column Pre-medication
Protocol: as §1
as §2, with “rule. Sigulair (10 mg) and Zertec (10 mg) were orally administered and” for “rule.”
as §3

[6] = KM-871 test dose 10 mg/m^2 two weeks prior to 1st administration
[7] = premedication at 1st administration
[8] = premedication at 1st and 2nd administration
[9] = premedication at 2nd administration
[10] = KM-871 40 mg/m^2 every two weeks, Sigulair 10 mg and Zertec 10 mg orally 30 min before, at the administrations named in column Pre-medication

B1: KM-871: human chimeric antibody binding ganglioside GD3; H chain V region SEQ ID NO:3, L chain V region SEQ ID NO:4; produced per U.S. Pat. No. 6,437,098 (antibody, V domains shown)
VH: EVQLVESGGDFVQPGGSLRVSCAASGFAFSHYAMSWVRQAPGKGLEWVAYISSGGSGTYYSDSVKGRFTISRDNSKNTLYLQMRSLRAEDSAVYFCTRVKLGTYYFDSWGQGTLLTVSS
VL: DIQMTQSPSSLSASVGDRVTITCSASQDISNYLNWYQQKPDKAPKLLIFYSSNLHSGVPSRFSGGGSGTDYTLTISSLQPEDIATYFCHQYSKLPWTFGQGTKVEIKR
modifications: Artificial Sequence H chain V region of the antibody; Artificial Sequence L chain V region of the antibody
Infusion reaction, 1st administration ([1]; KM-871 40 mg/m^2 or 80 mg/m^2 every two weeks, premedication (Sigulair, Zertec, Benadryl, Zantac, Dexametazone) at 2nd administration): HIVES | Infusion reaction, Test [1, 6]: RASH | Infusion reaction, 1st administration [2, 7]: ARMS, LEGS, ERYTHEMA; also recorded: FEVER; also recorded: RIGORS | Infusion reaction, 2nd administration [2, 7]: CHILLS; also recorded: FEVER | Infusion reaction, 3rd administration [2, 7]: HIVES | Infusion reaction, 1st administration [2, 8]: FULLNESS IN THROAT | Infusion reaction, 2nd administration [2, 8]: HIVES | Infusion reaction, 1st administration [2, 9]: ITCHING; also recorded: RIGORS | Infusion reaction, 3rd administration [2, 9]: CHILLS | Infusion reaction, Test [2, 7]: FEVER; also recorded: HIVES | Infusion reaction, Test [2, 8]: ITCHING | Infusion reaction, 1st administration [3, 10]: CHILLS; also recorded: THROAT SWELLING; also recorded: ITCHING/HIVES | Infusion reaction, 2nd administration [3, 10]: HIVES | Infusion reaction, 3rd administration [3, 10]: HIVES ON HANDS | Infusion reaction, Test [3, 6]: FACIAL FLUSHING; also recorded: HIVES/ITCHING | Infusion reactions at the first administration ([4]; 4 mg/m^2 of KM-871, no premedication stated): Rash, Urticaria, Itching | Infusion reactions after the third administration ([4]; premedication Benadryl 100 mg, Zantac 50 mg, Singulair 10 mg and Zyrtec 10 mg before KM-871): infusion reactions did not appear | Infusion reactions after the second administration ([4]; premedication Benadryl 100 mg, Zantac 50 mg, Singulair 10 mg, Zyrtec 10 mg and Dexametazone 10 mg the same day before KM-871): infusion reactions did not appear | Infusion reaction, 2nd administration [5]: ITCHING | Infusion reaction, 1st administration ([5]; premedication at 1st, 2nd and 3rd administrations): HIVES; also recorded: ITCHING | Infusion reaction, 1st administration ([5]; premedication at 2nd and 4th administrations): FEVER; also recorded: HIVES/ITCHING | Infusion reaction, 1st administration ([5]; premedication at 2nd, 3rd and 4th administrations): FEVER

Reference: patent US20070003557A1, “Method for treating cancer using premedication” (priority 2005, published 2007)
